The values that follow come from US20230242635A1 (published 2023).

One may read the Kd as the constant that tells how readily two partners part at equilibrium.

Sequences and labels used below:
B1: caninized anti-IL31 antibody 34D03 (mAb1), canine IgGB (65), wild-type (antibody)
heavy: EVQLVESGGDLVKPGGSLRLSCVASGFTFSNYGMSWVRQAPGKGLQWVATISYGGSYTYYPDNIKGRFTISRDNAKNTLYLQMNSLRAEDTAMYYCVRGYGYDTMDYWGQGTLVTVSSASTTAPSVFPLAPSCGSTSGSTVALACLVSGYFPEPVTVSWNSGSLTSGVHTFPSVLQSSGLYSLSSMVTVPSSRWPSETFTCNVAHPASKTKVDKPVPKRENGRVPRPPDCPKCPAPEMLGGPSVFIFPPKPKDTLLIARTPEVTCVVVDLDPEDPEVQISWFVDGKQMQTAKTQPREEQFNGTYRVVSVLPIGHQDWLKGKQFTCKVNNKALPSPIERTISKARGQAHQPSVYVLPPSREELSKNTVSLTCLIKDFFPPDIDVEWQSNGQQEPESKYRTTPPQLDEDGSYFLYSKLSVDKSRWQRGDTFICAVMHEALHNHYTQESLSHSPGK
VL: EIVMTQSPASLSLSQEEKVTITCKASQSVSFAGTGLMHWYQQKPGQAPKLLIYRASNLEAGVPSRFSGSGSGTDFSFTISSLEPEDVAVYYCQQSREYPWTFGQGTKLEIK
B2: caninized anti-IL31 antibody 34D03 (mAb1), canine IgGB (65), N434H (antibody)
heavy: B1 heavy with N440H
VL: B1 VL
B3: caninized anti-IL31 antibody 34D03 (mAb1), canine IgGB, N434G (antibody)
chain 1: B1 heavy with N440G
chain 2: B1 VL
B4: caninized anti-IL31 antibody 34D03 (mAb1), canine IgGB, N434F (antibody)
chain 1: B1 heavy with N440F
chain 2: B1 VL
B5: caninized anti-IL31 antibody 34D03 (mAb1), canine IgGB, N434A (antibody)
chain 1: B1 heavy with N440A
chain 2: B1 VL
B6: caninized anti-IL31 antibody 34D03 (mAb1), canine IgGB, N434I (antibody)
chain 1: B1 heavy with N440I
chain 2: B1 VL
B7: caninized anti-IL31 antibody 34D03 (mAb1), canine IgGB, N434L (antibody)
chain 1: B1 heavy with N440L
chain 2: B1 VL
B8: caninized anti-IL31 antibody 34D03 (mAb1), canine IgGB, N434K (antibody)
chain 1: B1 heavy with N440K
chain 2: B1 VL
B9: caninized anti-NGF antibody ZTS-841 (mAb2 of Table 4), canine IgGC, WT (antibody, from a related filing, part only)
heavy: EVQLVESGGDLVKPGGSLRLSCVASGFTFSSHGMHWVRQSPGKGLQWVAVINSGGSSTYYTDAVKGRFTISRDNAKNTVYLQMNSLRAEDTAMYYCAKESVGGWEQLVGPHFDYWGQGTLVIVSSASTTAPSVFPLAPSCGSQSGSTVALACLVSGYIPEPVTVSWNSVSLTSGVHTFPSVLQSSGLYSLSSMVTVPSSRWPSETFTCNVAHPATNTKVDKPVAKECECKCNCNNCPCPGCGLLGGPSVFIFPPKPKDILVTARTPTVTCVVVDLDPENPEVQISWFVDSKQVQTANTQPREEQSNGTYRVVSVLPIGHQDWLSGKQFKCKVNNKALPSPIEEIISKTPGQAHQPNVYVLPPSRDEMSKNTVTLTCLVKDFFPPEIDVEWQSNGQQEPESKYRMTPPQLDEDGSYFLYSKLSVDKSRWQRGDTFICAVMHEALHNHYTQISLSHSPGK
VL: QSVLTQPTSVSGSLGQRVTISCSGSTNNIGILGASWYQLFPGKAPKLLVYGNGNRPSGVPDRFSGADSGDSVTLTITGLQAEDEADYYCQSFDTTLGAHVFGGGTHLTVL
B10: caninized anti-NGF antibody ZTS-841 (mAb2 of Table 4), canine IgGD, WT (antibody, from a related filing, part only)
heavy: EVQLVESGGDLVKPGGSLRLSCVASGFTFSSHGMHWVRQSPGKGLQWVAVINSGGSSTYYTDAVKGRFTISRDNAKNTVYLQMNSLRAEDTAMYYCAKESVGGWEQLVGPHFDYWGQGTLVIVSSASTTAPSVFPLAPSCGSTSGSTVALACLVSGYFPEPVTVSWNSGSLTSGVHTFPSVLQSSGLYSLSSTVTVPSSRWPSETFTCNVVHPASNTKVDKPVPKESTCKCISPCPVPESLGGPSVFIFPPKPKDILRITRTPEITCVVLDLGREDPEVQISWFVDGKEVHTAKTQPREQQFNSTYRVVSVLPIEHQDWLTGKEFKCRVNHIGLPSPIERTISKARGQAHQPSVYVLPPSPKELSSSDTVTLTCLIKDFFPPEIDVEWQSNGQPEPESKYHTTAPQLDEDGSYFLYSKLSVDKSRWQQGDTFTCAVMHEALQNHYTDLSLSHSPGK
VL: B9 VL
B11: caninized anti-IL31 antibody 11E12 (mAb1 of Table 5), canine IgGB, WT2 (antibody, part only; not given: light chain, part only)
heavy: EVQLVQSGAEVKKPGASVKVSCKTSGYTFKYYDINWVRQAPGAGLDWMGWIFPGDGGTKYNETFKGRVTLTADTSTSTAYMELSSLRAGDIAVYYCARGGTSVIRDAMDYWGQGTLVTVSSASTTAPSVFPLAPSCGSTSGSTVALACLVSGYFPEPVTVSWNSGSLTSGVHTFPSVLQSSGLYSLSSMVTVPSSRWPSETFTCNVAHPASKTKVDKPVPKRENGRVPRPPDCPKCPAPEMLGGPSVFIFPPKPKDTLLIARTPEVTCVVVDLDPEDPEVQISWFVDGKQMQTAKTQPREEQFNGTYRVVSVLPIGHQDWLKGKQFTCKVNNKALPSPIERTISKARGQAHQPSVYVLPPSREELSKNTVSLTCLIKDFFPPDIDVEWQSNGQQEPESKYRTTPPQLDEDGSYFLYSKLSVDKSRWQRGDTFICAVMHEALHNHYTQESLSHSPGK
B12: caninized anti-IL31 antibody 11E12 (mAb1 of Table 5), canine IgGB, N434H (antibody, part only; not given: light chain, part only)
heavy: B11 heavy with N443H

Positions count from the first letter of the chain named. Names may count otherwise.

One assay has as its target IL-31 (target protein of mAb1, immobilized). The experiment in a line: SPR (Biacore T200), target amine-coupled on CM5, antibody flowed, 15 C, 1:1 model. For orientation: In SPR one partner is held on a chip, and binding of the other changes the refractive index at the surface.
B1 returned a Kd of 0.483 nM.
On the same count and under the same terms, then B2, with 0.373 nM.

For the next assay, the target named is T1, canine FcRn complex (FcRn-α subunit and β-microglobulin), biotin labeled by BirA, captured on SA chip … (canine, UniProt A0A8I3PFR8 25-296, biotin label by BirA enzymatic biotinylation (BAP tag)). The assay is described as follows: SPR (Biacore), biotinylated FcRn captured on SA chip, IgG flowed, pH 6, 15 C.
T1 sequence (A0A8I3PFR8 entry or part of it, one chain of several): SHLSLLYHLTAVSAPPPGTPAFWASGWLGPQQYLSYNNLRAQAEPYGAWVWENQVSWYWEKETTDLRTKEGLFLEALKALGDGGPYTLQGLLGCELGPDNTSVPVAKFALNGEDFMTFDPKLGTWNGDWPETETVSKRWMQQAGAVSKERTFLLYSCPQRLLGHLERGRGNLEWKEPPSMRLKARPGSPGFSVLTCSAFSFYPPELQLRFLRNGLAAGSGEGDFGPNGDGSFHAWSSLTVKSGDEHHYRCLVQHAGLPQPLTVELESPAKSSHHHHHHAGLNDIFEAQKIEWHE
As to B3, the Kd was 118 nM.
Still for that read-out and setting: then B4, with 30.7 nM; and B5, with 139 nM; and B6, with 77.1 nM.
The molecule B7 showed a Kd of 14.3 nM.
The same measure, in the same setting: then B8, with 9.11 nM.

A further assay has as its target T1, canine FcRn complex (FcRn-α subunit and …). The experiment in a line: SPR (Biacore), biotinylated FcRn captured on SA chip, IgG flowed, pH 7.4, 15 C.
Regarding B3, the Kd is 26000 nM.
Same read-out and setting: then B4, with 33700 nM.
Still for that read-out and setting: then B5, with 175 nM; and B6, with 19600 nM; and B7, with 997 nM.
Same read-out and setting: then B8, with 7.86 nM.

The target of a further assay is IL-31 (target protein of mAb1, immobilized). The experiment in a line: cell-based or functional assay.
In turn, B1 had an IC50 (cell based potency assay) of 1.1 nM.
On the same count and under the same terms, then B2, with 0.99 nM.

A further assay addresses canine FcRn complex (FcRn-α subunit and β-microglobulin), biotin labeled by BirA, captured on SA chip (Example 5) (canine). The experiment in a line: SPR (Biacore), biotinylated FcRn captured on SA chip, IgG flowed, pH 6, 15 C.
Regarding B9, the Kd was determined as 52 nM.
Same read-out and setting: then B10, with 71 nM; and B11, with 40 nM.
Still for that read-out and setting: then B12, with 1 nM.
Consider B1, for which the Kd came to 19.9 nM.
The same measure, in the same setting: then B2, with 6.45 nM.

The target in the next assay is canine FcRn complex (FcRn-α subunit and β-microglobulin) with c-terminal 6x His + BAP tag, amine-immobilized (Example 3) (canine). The assay is described as follows: SPR (Biacore), FcRn amine-coupled on CM5, IgG flowed, pH 6, 15 C.
B1: the Kd lay within 15 to 24.4 nM.
Same read-out and setting: then B2, with 0.7 to 1.3 nM.

A further assay addresses canine FcRn complex (FcRn-α subunit and β-microglobulin), biotin labeled by BirA, captured on SA chip (Example 5) (canine). The experiment in a line: SPR (Biacore), biotinylated FcRn captured on SA chip, IgG flowed, pH 7.4, 15 C.
B12 had a Kd of 83900 nM.
On the same count and under the same terms, then B1, with 18700 nM.

For a further assay, the target named is canine FcRn complex (FcRn-α subunit and β-microglobulin) with c-terminal 6x His + BAP tag, amine-immobilized (Example 3) (canine). The assay is described as follows: SPR (Biacore), FcRn amine-coupled on CM5, IgG flowed, pH 7.2, 15 C.
For the molecule B2, the Kd came out at 5000 nM.
